This test addresses T1, SARS‐CoV‐2 NSP3 SUD‐M domain (1356–1493), tag cleaved, for FP, P0DTD1.
T1 chain: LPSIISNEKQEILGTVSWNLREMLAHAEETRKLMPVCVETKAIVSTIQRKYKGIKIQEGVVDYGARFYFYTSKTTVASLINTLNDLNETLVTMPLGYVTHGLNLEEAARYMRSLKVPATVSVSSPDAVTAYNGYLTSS
The test can be described thus: fluorescence polarization (FP)-based affinity measurement. As to conditions: chain shown with the change;; read off a plot.

Our source for the ratio to parent values is article PMC12102759.

QFTEEELHFVLYGVTPY [PRDM14 wt peptide 196-211 D201E]: the ratio to parent came out at 14 fold.

In the case of QFTEEDLMFVLYGVTPY [PRDM14 wt peptide 196-211 H203M], the ratio to parent amounted to 5.6 fold.
